The record followed here is US20040191826A1.

In one experiment the target is DPP8/V5/His (human) (UniProt Q6V1X1). Put plainly: cell-based or functional assay.
In a further experiment the target is DPPIV/V5/His (human) (UniProt P27487). Put plainly: cell-based or functional assay.
Sequence of DPPIV/V5/His (human) (P27487 whole entry, form in doubt): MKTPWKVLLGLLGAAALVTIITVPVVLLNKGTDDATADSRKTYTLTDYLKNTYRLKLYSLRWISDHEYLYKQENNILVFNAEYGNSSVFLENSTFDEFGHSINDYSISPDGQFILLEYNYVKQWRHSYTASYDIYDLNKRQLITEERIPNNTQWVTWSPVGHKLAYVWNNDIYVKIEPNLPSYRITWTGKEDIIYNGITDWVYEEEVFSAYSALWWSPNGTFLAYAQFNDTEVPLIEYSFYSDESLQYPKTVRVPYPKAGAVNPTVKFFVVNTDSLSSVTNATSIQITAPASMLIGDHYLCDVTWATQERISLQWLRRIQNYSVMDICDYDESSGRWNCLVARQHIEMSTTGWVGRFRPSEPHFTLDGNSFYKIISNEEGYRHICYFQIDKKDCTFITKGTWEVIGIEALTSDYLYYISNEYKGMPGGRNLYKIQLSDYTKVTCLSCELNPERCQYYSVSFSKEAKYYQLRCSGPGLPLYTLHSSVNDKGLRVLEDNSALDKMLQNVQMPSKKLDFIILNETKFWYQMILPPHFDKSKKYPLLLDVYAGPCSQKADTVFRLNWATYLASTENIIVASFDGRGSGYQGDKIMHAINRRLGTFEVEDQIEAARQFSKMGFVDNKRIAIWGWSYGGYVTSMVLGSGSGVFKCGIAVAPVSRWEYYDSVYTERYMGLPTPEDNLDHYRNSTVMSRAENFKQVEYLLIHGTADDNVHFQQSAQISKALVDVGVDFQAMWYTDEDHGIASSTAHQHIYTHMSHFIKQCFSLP

Sequence of DPP8/V5/His (human) (Q6V1X1 17-898): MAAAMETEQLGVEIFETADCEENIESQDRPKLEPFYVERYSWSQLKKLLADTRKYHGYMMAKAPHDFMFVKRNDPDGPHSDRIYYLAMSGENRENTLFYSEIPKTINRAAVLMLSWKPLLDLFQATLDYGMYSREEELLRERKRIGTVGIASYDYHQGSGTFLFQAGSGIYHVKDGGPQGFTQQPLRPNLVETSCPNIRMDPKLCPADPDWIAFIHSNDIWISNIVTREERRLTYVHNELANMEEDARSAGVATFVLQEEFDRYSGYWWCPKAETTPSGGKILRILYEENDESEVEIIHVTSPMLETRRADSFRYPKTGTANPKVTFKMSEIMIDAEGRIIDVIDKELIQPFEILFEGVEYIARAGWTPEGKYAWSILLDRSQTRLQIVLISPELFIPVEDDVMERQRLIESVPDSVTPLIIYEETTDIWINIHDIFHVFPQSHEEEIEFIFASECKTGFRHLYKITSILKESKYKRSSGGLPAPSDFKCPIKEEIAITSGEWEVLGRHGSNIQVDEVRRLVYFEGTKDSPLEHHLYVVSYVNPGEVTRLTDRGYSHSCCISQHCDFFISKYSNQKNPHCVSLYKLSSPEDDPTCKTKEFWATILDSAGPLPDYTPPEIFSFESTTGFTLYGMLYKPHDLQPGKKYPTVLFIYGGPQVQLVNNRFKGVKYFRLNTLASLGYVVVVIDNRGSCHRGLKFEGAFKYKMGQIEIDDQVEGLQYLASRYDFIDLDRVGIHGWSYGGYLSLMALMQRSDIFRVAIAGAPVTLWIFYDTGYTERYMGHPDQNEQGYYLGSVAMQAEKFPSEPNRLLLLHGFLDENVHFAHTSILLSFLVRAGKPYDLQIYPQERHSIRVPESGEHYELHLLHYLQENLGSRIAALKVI

For the substance Ala-Pro-Gly (peptide), in the experiment with DPP8/V5/His (human), the Residual activity (% of control), H-Ala-Pro-pNA hydrolysis, peptide at 10 mM is 51 % of control. In addition, the Residual activity (% of control), H-Gly-Pro-pNA hydrolysis, peptide at 10 mM with DPPIV/V5/His (human) was 67 % of control.
